Drawing on PMC9482650, “Quantitative fragmentomics allow affinity mapping of interactomes” (Nature Communications, 2022), this text covers pKd for four molecules.

One may read the pKd as the negative decadic logarithm of the Kd, by convention in mol/L.

Assay in all cases: holdup assay
Common to all, as to set-up: key: below the threshold = too weak to quantify, mostly under pKd 3.1 to 4

Assay [1] addresses T1, PDZD2_2, O15018.
T1 sequence (O15018 329-429, limits assumed, looked up): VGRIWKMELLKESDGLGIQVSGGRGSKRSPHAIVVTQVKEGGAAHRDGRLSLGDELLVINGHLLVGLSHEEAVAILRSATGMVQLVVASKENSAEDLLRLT

In assay [2] the target is Inadl_8, Q8NI35.
Inadl_8, Q8NI35, sequence (Q8NI35 1425-1530): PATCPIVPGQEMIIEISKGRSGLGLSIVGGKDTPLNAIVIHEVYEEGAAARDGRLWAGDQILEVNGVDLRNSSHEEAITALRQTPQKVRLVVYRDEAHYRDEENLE
For assay [3], the target named is IL16_3, Q14005.
IL16_3, Q14005, sequence (Q14005 1107-1207): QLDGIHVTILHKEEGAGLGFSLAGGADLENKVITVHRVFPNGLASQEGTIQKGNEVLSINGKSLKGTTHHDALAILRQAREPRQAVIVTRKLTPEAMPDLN
The target in assay [4] is NHERF4_1, Q86UT5-2.
NHERF4_1, Q86UT5-2, sequence (Q86UT5 other isoform, or with tags, fused parts or gaps): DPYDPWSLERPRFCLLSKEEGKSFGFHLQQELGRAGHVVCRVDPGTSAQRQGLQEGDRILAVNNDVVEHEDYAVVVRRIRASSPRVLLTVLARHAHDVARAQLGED
The target in assay [5] is T2, GRIP1_4, Q9Y3R0.
T2 sequence (Q9Y3R0 467-571, limits assumed, looked up): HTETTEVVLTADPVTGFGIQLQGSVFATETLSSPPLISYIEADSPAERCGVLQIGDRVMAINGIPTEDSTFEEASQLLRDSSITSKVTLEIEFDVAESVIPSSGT

The target of assay [6] is LIMK2, P53671.
LIMK2, P53671, sequence (P53671 143-248): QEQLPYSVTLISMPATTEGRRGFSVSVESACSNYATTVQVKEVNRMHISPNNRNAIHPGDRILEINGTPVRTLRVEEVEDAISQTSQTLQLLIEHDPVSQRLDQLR
Assay [7] deals with T3, SNTG2, Q9NY99.
T3 sequence (Q9NY99 68-166, limits assumed, looked up): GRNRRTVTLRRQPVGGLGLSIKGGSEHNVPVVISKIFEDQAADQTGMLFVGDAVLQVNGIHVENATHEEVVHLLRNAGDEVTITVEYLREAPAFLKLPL

For assay [8], the target named is GRIP2_4, Q9C0E4.
GRIP2_4, Q9C0E4, sequence (Q9C0E4 446-548): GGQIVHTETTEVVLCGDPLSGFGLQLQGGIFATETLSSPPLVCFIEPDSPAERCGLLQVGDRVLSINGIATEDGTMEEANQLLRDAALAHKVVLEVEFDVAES
Assay [9] has as its target T4, DLG3_1, Q92796.
T4 sequence (Q92796 125-227, limits assumed, looked up): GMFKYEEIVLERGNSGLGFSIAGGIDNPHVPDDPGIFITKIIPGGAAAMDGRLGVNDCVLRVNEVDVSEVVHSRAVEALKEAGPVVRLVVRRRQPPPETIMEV

For assay [10], the target named is FRMPD2_1, Q68DX3.
FRMPD2_1, Q68DX3, sequence (Q68DX3 770-861): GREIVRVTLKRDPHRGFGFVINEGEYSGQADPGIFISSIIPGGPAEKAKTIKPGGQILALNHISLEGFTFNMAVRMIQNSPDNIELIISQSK
The target in assay [11] is Inadl_3, Q8NI35.
Inadl_3, Q8NI35, sequence (Q8NI35 359-469): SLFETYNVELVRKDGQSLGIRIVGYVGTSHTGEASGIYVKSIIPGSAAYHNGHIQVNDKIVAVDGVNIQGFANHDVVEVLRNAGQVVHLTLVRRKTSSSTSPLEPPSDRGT
Assay [12] addresses DLG1_1, Q12959.
In assay [13] the target is T5, DFNB31_2, Q9P202.
T5 sequence (Q9P202 274-371, limits assumed, looked up): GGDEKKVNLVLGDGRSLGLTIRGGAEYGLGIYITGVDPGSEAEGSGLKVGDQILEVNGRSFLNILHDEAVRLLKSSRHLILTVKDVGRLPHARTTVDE

Assay [14] addresses T6, DFNB31_1, Q9P202.
T6 sequence (Q9P202 135-233, limits assumed, looked up): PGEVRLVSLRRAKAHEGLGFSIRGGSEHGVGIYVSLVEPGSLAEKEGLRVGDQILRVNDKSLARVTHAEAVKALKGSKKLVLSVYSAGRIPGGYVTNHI

The target of assay [15] is T7, TX1BP3, O14907.
T7 sequence (O14907 10-122, limits assumed, looked up): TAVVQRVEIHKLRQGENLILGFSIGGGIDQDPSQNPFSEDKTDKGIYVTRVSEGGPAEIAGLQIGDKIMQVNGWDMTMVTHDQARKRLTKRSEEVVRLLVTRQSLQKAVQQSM

The target of assay [16] is MAGI2_4, Q86UL8.
MAGI2_4, Q86UL8, sequence (Q86UL8 772-865): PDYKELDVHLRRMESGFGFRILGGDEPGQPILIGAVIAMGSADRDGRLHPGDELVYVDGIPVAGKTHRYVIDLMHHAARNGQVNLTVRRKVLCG
The target in assay [17] is T8, CARD11, Q9BXL7.
T8 sequence (Q9BXL7 662-765, limits assumed, looked up): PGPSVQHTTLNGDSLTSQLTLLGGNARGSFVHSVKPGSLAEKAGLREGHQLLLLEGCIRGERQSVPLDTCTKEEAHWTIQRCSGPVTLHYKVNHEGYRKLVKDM

For assay [18], the target named is T9, MPDZ_10, O75970.
T9 sequence (O75970 1624-1722, limits assumed, looked up): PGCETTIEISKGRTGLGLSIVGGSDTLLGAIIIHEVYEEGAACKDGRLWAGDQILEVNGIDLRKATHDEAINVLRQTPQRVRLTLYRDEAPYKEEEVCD

In assay [19] the target is MAGI1_1, Q96QZ7.
MAGI1_1, Q96QZ7, sequence (Q96QZ7 1-106): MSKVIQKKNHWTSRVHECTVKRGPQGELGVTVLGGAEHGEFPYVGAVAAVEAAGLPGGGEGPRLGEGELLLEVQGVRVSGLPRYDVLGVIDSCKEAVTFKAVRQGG
The target in assay [20] is T10, LNX2_2, Q8N448.
T10 sequence (Q8N448 334-432, limits assumed, looked up): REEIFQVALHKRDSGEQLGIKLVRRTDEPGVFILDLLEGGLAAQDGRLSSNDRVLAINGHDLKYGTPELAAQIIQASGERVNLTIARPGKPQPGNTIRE

Assay [21] has as its target SCRIB_3, Q14160.
Assay [22] concerns the target T11, RADIL, Q96JH8.
T11 sequence (Q96JH8 971-1071, limits assumed, looked up): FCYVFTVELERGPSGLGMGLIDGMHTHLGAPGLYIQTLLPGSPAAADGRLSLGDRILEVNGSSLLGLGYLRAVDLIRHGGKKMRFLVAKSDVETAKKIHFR

In assay [23] the target is DLG5_1, Q8TDM6.
DLG5_1, Q8TDM6, sequence (Q8TDM6 617-713): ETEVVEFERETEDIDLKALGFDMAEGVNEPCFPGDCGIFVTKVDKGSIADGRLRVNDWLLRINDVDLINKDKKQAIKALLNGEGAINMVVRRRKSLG
The target in assay [24] is T12, MPDZ_12, O75970.
T12 sequence (O75970 1857-1958, limits assumed, looked up): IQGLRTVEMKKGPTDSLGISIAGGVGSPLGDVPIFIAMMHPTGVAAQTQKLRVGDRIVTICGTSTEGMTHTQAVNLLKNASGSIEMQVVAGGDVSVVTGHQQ

Setting [25] is: plain residues with an end cap or a label only (N-terminal biotin on a linker: ahx).
[26] abbreviates: plain residues with an end cap or a label only (N-terminal biotin on a linker: ttds).
[27] abbreviates: plain residues with an end cap or a label only (N-terminal biotin on a linker: ado-ado).

SCRIB_3, Q14160, sequence (Q14160 999-1103): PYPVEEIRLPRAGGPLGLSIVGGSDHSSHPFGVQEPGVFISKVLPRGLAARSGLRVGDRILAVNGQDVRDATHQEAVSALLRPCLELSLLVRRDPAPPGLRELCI

HSATSVHTSV [MTMR1, Q13613]: the negative-log Kd (pKd) in [1] (setting [25]) was 4.23; in assay [2] (setting [25]) it was 3.88; in assay [3] (setting [25]) it was “below the threshold”; in assay [4] (setting [25]) it was “below the threshold”; in assay [5] (setting [25]), “below the threshold”; in assay [6] (setting [25]) it was “below the threshold”. The pKd in assay [7] (setting [25]) was 3.5; in assay [8] (setting [25]) it was “below the threshold”; in assay [9] (setting [25]) it was 3.9; in assay [10] (setting [25]), “below the threshold”; in [11] (setting [25]), 3.7; in [12] (setting [25]), 4.26. The pKd result in [13] (setting [25]) was “below the threshold”; in assay [14] (setting [25]), 3.66; in assay [15] (setting [25]) it was 3.8; in assay [16] (setting [25]), “below the threshold”; in assay [17] (setting [25]) it was “below the threshold”; in [18] (setting [25]), 3.81. Further, the pKd result in assay [19] (setting [25]) was “below the threshold”; in assay [20] (setting [25]), 3.96; in assay [21] (setting [25]), 3.74; in assay [22] (setting [25]), “below the threshold”; in assay [23] (setting [25]), “below the threshold”; in assay [24] (setting [25]) it was “below the threshold”.
Regarding DLDEEEDTHL [PODXL, O00592], the negative logarithm of the Kd (pKd) in assay [1] (setting [26]) is 4; in assay [2] (setting [26]) it was “below the threshold”; in [3] (setting [26]), “below the threshold”; in assay [4] (setting [26]) it was “below the threshold”; in assay [5] (setting [26]) it was “below the threshold”; in [6] (setting [26]), “below the threshold”. For the same molecule, the pKd entry in assay [7] (setting [26]) was “below the threshold”; in assay [8] (setting [26]), “below the threshold”; in assay [9] (setting [26]), “below the threshold”; in assay [10] (setting [26]) it was “below the threshold”; in assay [11] (setting [26]) it was “below the threshold”; in assay [12] (setting [26]) it was 3.63. Moreover, the pKd result in assay [13] (setting [26]), in [14] (setting [26]), in assay [15] (setting [26]), in assay [16] (setting [26]), in assay [17] (setting [26]) and in assay [18] (setting [26]) was “below the threshold” each time. The pKd result in assay [19] (setting [26]) was “below the threshold”; in assay [20] (setting [26]), 3.48; in [21] (setting [26]) it was “below the threshold”; in assay [22] (setting [26]), “below the threshold”; in assay [23] (setting [26]), “below the threshold”; in [24] (setting [26]), “below the threshold”.
Take IGHEDLETAV [DGKI, O75912]: the pKd in [1] (setting [27]) is 5.25; in assay [2] (setting [27]) it was “below the threshold”; in [3] (setting [27]), “below the threshold”; in assay [4] (setting [27]), “below the threshold”; in assay [5] (setting [27]) it was “below the threshold”; in assay [6] (setting [27]) it was “below the threshold”. Besides, the pKd in [7] (setting [27]) is 4.8; in assay [8] (setting [27]), “below the threshold”; in assay [9] (setting [27]), 4.09; in assay [10] (setting [27]) it was “below the threshold”; in assay [11] (setting [27]), 3.53; in assay [12] (setting [27]) it was 4.51. Further, the negative logarithm of the Kd (pKd) result was “below the threshold” in [13] (setting [27]); 4.79 in assay [14] (setting [27]); 4.3 in assay [15] (setting [27]); “below the threshold” in assay [16] (setting [27]); “below the threshold” in [17] (setting [27]); “below the threshold” in [18] (setting [27]). For the same molecule, the negative logarithm of the Kd (pKd) entry in [19] (setting [27]) was “below the threshold”; in assay [20] (setting [27]), 3.73; in [21] (setting [27]), 4.91; in assay [22] (setting [27]) it was “below the threshold”; in [23] (setting [27]), “below the threshold”; in [24] (setting [27]) it was “below the threshold”.
On to SQDPKKPSRV [CBY2, Q8NA61], for which the negative logarithm of the Kd (pKd) entry in assay [1] (setting [27]) was “below the threshold”; in [2] (setting [27]), 4.43; in assay [3] (setting [27]), “below the threshold”; in [4] (setting [27]), “below the threshold”; in assay [5] (setting [27]), “below the threshold”; in assay [6] (setting [27]), “below the threshold”. For the same molecule, the pKd result in [7] (setting [27]), in [8] (setting [27]), in assay [9] (setting [27]), in [10] (setting [27]), in [11] (setting [27]) and in assay [12] (setting [27]) was “below the threshold” in each case. Moreover, the pKd entry was “below the threshold” in assay [13] (setting [27]); “below the threshold” in assay [14] (setting [27]); “below the threshold” in [15] (setting [27]); “below the threshold” in [16] (setting [27]); “below the threshold” in assay [17] (setting [27]); 3.7 in assay [18] (setting [27]). The negative logarithm of the Kd (pKd) in assay [19] (setting [27]) is 3.49; in assay [20] (setting [27]), “below the threshold”; in assay [21] (setting [27]), “below the threshold”; in [22] (setting [27]), 3.61; in assay [23] (setting [27]), “below the threshold”; in assay [24] (setting [27]), “below the threshold”.
